# B1: GST tagged AMPK β2 (other, UniProt O43741 1-272, looked up)
# chain: MGNTTSDRVSGERHGAKAARSEGAGGHAPGKEHKIMVGSTDDPSVFSLPDSKLPGDKEFVSWQQDLEDSVKPTQQARPTVIRWSEGGKEVFISGSFNNWSTKIPLIKSHNDFVAILDLPEGEHQYKFFVDGQWVHDPSEPVVTSQLGTINNLIHVKKSDFEVFDALKLDSMESSETSCRDLSSSPPGPYGQEMYAFRSEERFKSPPILPPHLLQVILNKDTNISCDPALLPEPNHVMLNHLYALSIKDSVMVLSATHRYKKKYVTTLLYKPI
# notes: not shown: glutathione S-transferase tag of vector pGEX-4T-1
# B2: GST tagged AMPK γ1 (other, UniProt P54619 1-331, looked up)
# chain: METVISSDSSPAVENEHPQETPESNNSVYTSFMKSHRCYDLIPTSSKLVVFDTSLQVKKAFFALVTNGVRAAPLWDSKKQSFVGMLTITDFINILHRYYKSALVQIYELEEHKIETWREVYLQDSFKPLVCISPNASLFDAVSSLIRNKIHRLPVIDPESGNTLYILTHKRILKFLKLFITEFPKPEFMSKSLEELQIGTYANIAMVRTTTPVYVALGIFVQHRVSALPVVDEKGRVVDIYSKFDVINLAAEKTYNNLDVSVTKALQHRSHYFEGVLKCYLHETLETIINRLVEAEVHRLVVVDENDVVKGIVSLSDILQALVLTGGEKKP
# notes: as for B1
# B3: LKB1 (enzyme, UniProt Q15831 1-430, looked up)
# chain: MEVVDPQQLGMFTEGELMSVGMDTFIHRIDSTEVIYQPRRKRAKLIGKYLMGDLLGEGSYGKVKEVLDSETLCRRAVKILKKKKLRRIPNGEANVKKEIQLLRRLRHKNVIQLVDVLYNEEKQKMYMVMEYCVCGMQEMLDSVPEKRFPVCQAHGYFCQLIDGLEYLHSQGIVHKDIKPGNLLLTTGGTLKISDLGVAEALHPFAADDTCRTSQGSPAFQPPEIANGLDTFSGFKVDIWSAGVTLYNITTGLYPFEGDNIYKLFENIGKGSYAIPGDCGPPLSDLLKGMLEYEPAKRFSIRQIRQHSWFRKKHPPAEAPVPIPPSPDTKDRWRSMTVVPYLEDLHGADEDEDLFDIEDDIIYTQDFTVPGQVPEEEASHNGQRRGLPKAVCMNGTEAAQLSTKSRAEGRAPNPARKACSASSKIRRLSAC
# notes: Cellular protein co-precipitated with FLAG-tagged AMPKα
# B4: AMPKα2 4KR mutant (FLAG-tagged, expressed in HCT116 cells) (enzyme)
# chain: MAEKQKHDGRVKIGHYVLGDTLGVGTFGKVKIGEHQLTGHKVAVKILNRQKIRSLDVVGRIKREIQNLKLFRHPHIIKLYQVISTPTDFFMVMEYVSGGELFDYICKHGRVEEMEARRLFQQILSAVDYCHRHMVVHRDLKPENVLLDAHMNAKIADFGLSNMMSDGEFLRTSCGSPNYAAPEVISGRLYAGPEVDIWSCGVILYALLCGTLPFDDEHVPTLFKKIRGGVFYIPEYLNRSVATLLMHMLQVDPLKRATIKDIREHEWFKQDLPSYLFPEDPSYDANVIDDEAVKEVCEKFECTESEVMNSLYSGDPQDQLAVAYHLIIDNRRIMNQASEFYLASSPPSGSFMDDSAMHIPPGLKPHPERMPPLIADSPRARCPLDALNTTRPKSLAVKKAKWHLGIRSQSKPYDIMAEVYRAMKQLDFEWKVVNAYHLRVRRKNPVTGNYVKMSLQLYLVDNRSYLLDFRSIDDEVVEQRSGSSTPQRSCSAAGLHRPRSSFDSTTAESHSLSGSLTGSLTGSTLSSVSPRLGSHTMDFFEMCASLITTLAR
# notes: also called quadruple K to R mutant (4KR); AMPKα 4KR mutant; not shown: FLAG tag
# B5: AMPKα1 4KR mutant (FLAG-tagged, expressed in HCT116 cells) (enzyme)
# chain: MRRLSSWRKMATAEKQKHDGRVKIGHYILGDTLGVGTFGKVKVGKHELTGHKVAVKILNRQKIRSLDVVGRIRREIQNLKLFRHPHIIKLYQVISTPSDIFMVMEYVSGGELFDYICKNGRLDEKESRRLFQQILSGVDYCHRHMVVHRDLKPENVLLDAHMNAKIADFGLSNMMSDGEFLRTSCGSPNYAAPEVISGRLYAGPEVDIWSSGVILYALLCGTLPFDDDHVPTLFKKICDGIFYTPQYLNPSVISLLKHMLQVDPMKRATIKDIREHEWFKQDLPRYLFPEDPSYSSTMIDDEALKEVCEKFECSEEEVLSCLYNRNHQDPLAVAYHLIIDNRRIMNEAKDFYLATSPPDSFLDDHHLTRPHPERVPFLVAETPRARHTLDELNPQRSKHQGVRKAKWHLGIRSQSRPNDIMAEVCRAIKQLDYEWKVVNPYYLRVRRKNPVTSTYSKMSLQLYQVDSRTYLLDFRSIDDEITEARSGTATPQRSGSVSNYRSCQRSDSDAEAQGKSSEVSLTSSVTSLDSSPVDLTPRPGSHTIEFFEMCANLIKILAQ
# notes: also called 4KR AMPKα1; AMPKα 4KR mutant; not shown: FLAG tag
# B6: GST tagged AMPK β1 (other, UniProt Q9Y478 1-270, looked up)
# chain: MGNTSSERAALERHGGHKTPRRDSSGGTKDGDRPKILMDSPEDADLFHSEEIKAPEKEEFLAWQHDLEVNDKAPAQARPTVFRWTGGGKEVYLSGSFNNWSKLPLTRSHNNFVAILDLPEGEHQYKFFVDGQWTHDPSEPIVTSQLGTVNNIIQVKKTDFEVFDALMVDSQKCSDVSELSSSPPGPYHQEPYVCKPEERFRAPPILPPHLLQVILNKDTGISCDPALLPEPNHVMLNHLYALSIKDGVMVLSATHRYKKKYVTTLLYKPI
# notes: as for B1
# Legend:
# [1] = target: T1, Purified His6-USP10 (human, UniProt Q14694 1-798); assay: GST pull-down with recombinant proteins (FIG. 3A)
# T1 construct: also called His-USP10; recombinant USP10; not shown: His6 tag
# T1 sequence (Q14694 whole entry): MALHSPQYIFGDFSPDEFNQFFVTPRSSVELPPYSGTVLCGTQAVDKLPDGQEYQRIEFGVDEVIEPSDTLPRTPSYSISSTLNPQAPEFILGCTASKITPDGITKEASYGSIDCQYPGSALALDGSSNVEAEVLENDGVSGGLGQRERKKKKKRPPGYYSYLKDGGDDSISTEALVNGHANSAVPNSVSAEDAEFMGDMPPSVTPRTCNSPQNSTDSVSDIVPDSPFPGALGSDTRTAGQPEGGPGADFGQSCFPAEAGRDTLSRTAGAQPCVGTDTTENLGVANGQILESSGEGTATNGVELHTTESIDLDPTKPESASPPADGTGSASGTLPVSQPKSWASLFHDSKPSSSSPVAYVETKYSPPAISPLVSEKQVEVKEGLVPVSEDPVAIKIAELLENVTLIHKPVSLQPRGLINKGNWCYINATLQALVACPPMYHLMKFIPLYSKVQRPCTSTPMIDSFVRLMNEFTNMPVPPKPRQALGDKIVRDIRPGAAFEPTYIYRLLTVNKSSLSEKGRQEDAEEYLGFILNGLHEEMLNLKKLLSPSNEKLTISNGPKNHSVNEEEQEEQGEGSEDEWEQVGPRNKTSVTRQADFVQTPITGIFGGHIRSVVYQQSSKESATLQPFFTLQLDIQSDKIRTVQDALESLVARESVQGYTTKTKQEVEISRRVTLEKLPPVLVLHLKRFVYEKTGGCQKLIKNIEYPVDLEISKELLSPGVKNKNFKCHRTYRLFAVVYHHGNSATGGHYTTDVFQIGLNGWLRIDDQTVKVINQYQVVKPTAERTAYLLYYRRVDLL
# Protocol: Purified His6-USP10 was incubated with the indicated GST tagged AMPK subunits coupled to GSH-Sepharose. Proteins retained on Sepharose were then blotted with the indicated antibodies. FIGS. 3B-3D are immunoblots showing the interaction of USP10 with AMPKα in cells. HCT116 cell lysates were subjected to immunoprecipitation (IP) with control IgG, anti-USP10 (FIG. 3B), anti-AMPKα1 (FIG. 3C), anti-AMPKα2 (FIG. 3D) antibodies. The immunoprecipitates were then blotted with the indicated antibodies. […] 293T cells transfected with the indicated constructs were lysed, and lysates were incubated with anti-FLAG beads. Proteins retained on beads were blotted with the indicated antibodies. […] HCT116 cells infected with lentivirus encoding the indicated shRNAs were transfected with the indicated constructs. Cell lysates and Ni-NTA pulldowns were immunoblotted as indicated. -Glu, glucose starvation. FIG. 3G is a picture of an immunoblot showing that USP10 deubiquitinase activity is required for AMPK deubiquitination. The indicated constructs were transfected into USP10 knockdown cell lines, and cells were placed in medium without glucose for 4 hours. Cell lysates were incubated with anti-HA beads and immunoblotted with the indicated antibodies. -Glu, glucose starvation. FIG. 3H is a picture of an immunoblot showing deubiquitination of AMPKα2 in vitro by USP10. Ubiquitinated AMPKα2 was incubated with purified USP10 or USP10CA in vitro, and then blotted with indicated antibodies.
# Immunoprecipitation, immunoblotting, and in vitro pull-down assay—Cell lysates were prepared and immunoprecipitation and immunoblotting were performed as described elsewhere (Yuan et al., supra). In brief, cells were lysed with NETN buffer (20 mM Tris-HCl, pH 8.0, 100 mM NaCl, 1 mM EDTA, 0.5% Nonidet P-40) containing 50 mM β-glycerophosphate, 10 mM NaF, and 1 mg/ml each of pepstatin A and aprotinin.
# [2] = target: T2, WT AMPKα2 (FLAG-tagged, expressed in HCT116 cells) (human, UniProt P54646 1-552); assay: FLAG-bead immunoprecipitation from HCT116 lysates, LKB1 immunoblot (FIG. 5G)
# T2 construct: Precipitated from cell lysates with FLAG beads; ubiquitinated in part in cells; also called FLAG-AMPKα; not shown: FLAG tag
# [3] = target: T3, WT AMPKα1 (FLAG-tagged, expressed in HCT116 cells) (human, UniProt Q13131 1-559); assay: FLAG-bead immunoprecipitation from HCT116 lysates, LKB1 immunoblot (FIG. 6F)
# T3 construct: Precipitated from cell lysates with FLAG beads; ubiquitinated in part in cells; also called FLAG-AMPKα; not shown: FLAG tag
# [4] = target: B3; assay: FLAG-bead immunoprecipitation from HCT116 lysates, LKB1 immunoblot (FIG. 5G)
# [5] = target: B3; assay: FLAG-bead immunoprecipitation from HCT116 lysates, LKB1 immunoblot (FIG. 6F)
binder,measurement,setting,value
B1,binding result,[1],no binding
B2,binding result,[1],no binding
B3,binding result,[2],binds
same,binding result,[3],binds
B4,binding result,[4],binds
B5,binding result,[5],binds
B6,binding result,[1],no binding
